Three molecules from patent US20200384109A1 (published 2020) can be followed below.

One may read the Kd as the constant that tells how readily two partners part at equilibrium. Read a low Kd as tighter binding.

What all share (assay): SET
Assay [1] addresses BKV serotype III (ST3) virus-like particles (VLPs) (UniProt P14996 1-362).
The target in assay [2] is BKV serotype II (ST2) virus-like particles (VLPs) (UniProt P14996 1-362).
In assay [3] the target is BKV serotype I (ST1) virus-like particles (VLPs) (UniProt P03088 1-362).
In assay [4] the target is BKV serotype IV (ST4) virus-like particles (VLPs) (UniProt P14996 1-362).

B1: NOV581 (antibody, V domains shown)
VH: QVQLVESGGGLVQPGGSLRLSCVASGFTFSGYNMHWVRQAPGKGLEWVSYISNSGRTIYYADSVKGRFTLSRDNAKNSLYLQMNSLRAEDTAVYFCARDRDPQWLGNDALQIWGQGTMVTVSS
VL: EIVLTQSPGTLSLSPGERATLSCRASQSVSSGYLAWYQQKPGQAPRLLIYGASSRATGIPDRFSGSGSGTDFTLTISRLEPEDFAVYYCQQYGTSRKTFGQGTKVEIKR
On to B1, for which the dissociation constant (Kd) was 0.092 nM in assay [1], 0.069 nM in assay [2], 0.044 nM in assay [3] and over 6.6 nM in assay [4].

B2: NOV530 (antibody, V domains shown)
VH: QVQLQESGPGLVKPSQTLSLTCTVSGGSISGGGYYWSWIRQHPGKGLEFIGYIYYNRGTYYNPALKSRLTISVDTSKNDFSLKLSSVSAADTAVYYCARCVLGGYGSDAFDRWGQGTTVTVAS
VL: EIVLTQSPVTLSLSPGERAILSCRASQSVSSHLAWYQQKPGQAPRLLIYDASSRANGIPARFSGSGSGTDFTLTISSLAPEDFAVYYCQQRSSWPPSLTFGGGTKVEIRR
Molecule B2 had a Kd in assay [3] of 0.015 nM.

B3: NOV796 (antibody, V domains shown)
VH: QVQLVQSGPGLVKPSETLSLTCSVSGGSISGYYWSWIRQPPGKGLEWIGLIYESGSANYNPSLKSRVTISLDTSKNQFSLKLKSVTAADTAVYYCARRVRGWSYGMDVWGQGTTVAVSS
VL: DIVLTQSPGTLSLSPGETATLSCRASQILSSSFLAWFQQIPGQAPRLLIYAASSRATGIPDRFSGSGSGTDFSLTISRLEPEDFAVYYCQHYGSSPPWTFGQGTKVEIKR
Consider B3, for which the dissociation constant (Kd) in assay [1] amounted to 0.007 nM; in assay [2], 0.006 nM; in assay [3], 0.003 nM; in assay [4] it was 0.0009 nM.
